Laboratory results published in patent CN116745314A.

Biological target: spike glycoprotein of live SARS-CoV-2 (isolate USA-WA1/2020) (SARS-CoV-2) (UniProt P0DTC2)
Assay: cell-based or functional assay

S2E12-LS (antibody)
EC50 (live SARS-CoV-2-luc neutralisation, MOI 0.1, 6 h): 5 ng/mL | EC90 (live SARS-CoV-2-luc neutralisation, MOI 0.1, 6 h): 30 ng/mL | IC50 (live SARS-CoV-2-luc neutralisation, MOI 0.1, 6 h): 4.84 ng/mL
